PMC10694767 (Cell Reports Medicine, 2023)

Key:
[1] = molecular target: T1, soluble EBV gp42 (ectodomain, aa 34-223) (Epstein-Barr virus, strain M81, UniProt P03205); test: cell-based or functional assay
[2] = molecular target: T2, virion-encoded gp42 expressed on the cell surface of EBV-positive CNE2 cells (Epstein-Barr virus (HHV-4); strain …); test: flow cytometry on cells
T2 chain: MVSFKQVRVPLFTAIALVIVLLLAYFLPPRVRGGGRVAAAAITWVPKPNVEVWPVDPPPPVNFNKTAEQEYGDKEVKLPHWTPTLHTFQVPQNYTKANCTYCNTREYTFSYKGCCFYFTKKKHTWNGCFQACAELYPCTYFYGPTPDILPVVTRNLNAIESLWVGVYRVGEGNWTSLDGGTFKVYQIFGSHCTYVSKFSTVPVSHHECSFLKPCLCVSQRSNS

[3] = molecular target: T3, gHgL-gp42 complex (soluble gHgL with soluble gp42) (Epstein-Barr virus (HHV-4), strain M81, strain); test: SPR
[4] = molecular target: T1, soluble EBV gp42 (ectodomain, aa 34-223); test: SPR
[5] = molecular target: virion-encoded gHgL expressed on the cell surface of EBV-positive CNE2 cells (Epstein-Barr virus (HHV-4), strain in …); test: flow cytometry on cells
[6] = molecular target: T3, gHgL-gp42 complex (soluble gHgL with …); test: SEC
[7] = molecular target: T1, soluble EBV gp42 (ectodomain, aa 34-223); test: cryo-EM structure

Row | Binder | binding result [3] | binding result [6] | other results
1 | 5E3 (anti-gp42 rabbit mAb, constant regions replaced with human IgG1) (antibody, V domains shown) VH: QPVEESGGRLVTPGTPLTLTCTVSGFSLSTYAMSWVRQAPGKGLEWIGTISASDTTYFANWTKGRFTISKASTTVDLKITSPTTEDTATFFCARFSAYESNRDYFDTFDPWGPGTLVTVSS VL: DVVMTQTPSPVSAAVGGTVTIKCQASQNIYRDLAWYQQNPGQPPKLLIYGASNLASGVPSRFSGSGSGTEYILTISDLECADAATYYCQCSAYGSGYAAHAFGGGTKVDIK | binds |  | IC50 of neutralisation of EBV infection of Akata B cells; blocks gp42:HLA-II [1]: 0.2 µg/mL; binding result [2]: binds; Kd [4]: 0.39 nM
2 | 3E8 (anti-gp42 rabbit mAb, constant regions replaced with human IgG1) (antibody, V domains shown) VH: QPVKESGGRLVTPGTPLTLTCTASGFSLSSYWMSWVRQARGKGLEWIGTATAGGSAWYASWAKGRFTISRTSTTVELRMTSLTTEDTATYFCARDPPGHSGLWGRGTLVTVSS VL: DLVMTQTPASVEAAVGGTVTIKCQASESIGNALAWYQQKPGQPPKLLIYDTSNLASGVSSRFRGSGSGTQFTLTISDLECADAATYYCQTYYYSGVTTTYQAFGGGTEVDVK | binds |  | binding result [2]: binds; Kd [4]: 0.42 nM
3 | 6H2 (anti-gHgL mAb, constant regions replaced with human IgG1) (antibody, V domains shown) VH: EVKLLESGGGLVQPGGSLKLSCAASGFDFSRYWMTWVRQAPGQGLEWIGEINPDSSTINYTPSLKDKFIISRDNAKNTLYLQVSKLRSEDTALYYCARSPYYYGSSYDVWGAGTAVTVSS VL: DIVMSQSPSSLAVSAGEKVTMNCKSSQSLLNSRTRKNYLAWYQQKPGQSPKLLIYWASTRESGVPDRFTGSGSGTDFTLTISSVQAEDLAFYYCKQSYNLPTFGGGTKLEIK | binds |  | binding result [5]: binds
4 | 10E4 (anti-gHgL rabbit mAb, constant regions replaced with human IgG1) (antibody, V domains shown) VH: QQVKESGGRLVTPGTPLTLTCTASGFSLSTYWMSWVRQAPGKGLEYIGVIGGSGSTYYASWAKGRFTISKTSTTVDLKITSPTTEDTATYFCARDSGAGVRFRFWGPGTLVTVSS VL: DLVMTQTPASVEAGVGGTVTINCQASENIGSRLAWYQQKPGQPPKLLIYRASTLESGVPSRFKGSGSGTEFTLTISDLECADAATYYCQCTYGVSITINYGNDFGGGTEVVVK | binds |  | binding result [5]: binds
5 | 5E3 Fab (Fab, V domains shown) VH: QPVEESGGRLVTPGTPLTLTCTVSGFSLSTYAMSWVRQAPGKGLEWIGTISASDTTYFANWTKGRFTISKASTTVDLKITSPTTEDTATFFCARFSAYESNRDYFDTFDPWGPGTLVTVSS VL: DVVMTQTPSPVSAAVGGTVTIKCQASQNIYRDLAWYQQNPGQPPKLLIYGASNLASGVPSRFSGSGSGTEYILTISDLECADAATYYCQCSAYGSGYAAHAFGGGTKVDIK |  | binds | binding result [7]: binds
6 | 3E8 Fab (Fab, V domains shown) VH: QPVKESGGRLVTPGTPLTLTCTASGFSLSSYWMSWVRQARGKGLEWIGTATAGGSAWYASWAKGRFTISRTSTTVELRMTSLTTEDTATYFCARDPPGHSGLWGRGTLVTVSS VL: DLVMTQTPASVEAAVGGTVTIKCQASESIGNALAWYQQKPGQPPKLLIYDTSNLASGVSSRFRGSGSGTQFTLTISDLECADAATYYCQTYYYSGVTTTYQAFGGGTEVDVK |  | binds | 
7 | 6H2 Fab (Fab, V domains shown) VH: EVKLLESGGGLVQPGGSLKLSCAASGFDFSRYWMTWVRQAPGQGLEWIGEINPDSSTINYTPSLKDKFIISRDNAKNTLYLQVSKLRSEDTALYYCARSPYYYGSSYDVWGAGTAVTVSS VL: DIVMSQSPSSLAVSAGEKVTMNCKSSQSLLNSRTRKNYLAWYQQKPGQSPKLLIYWASTRESGVPDRFTGSGSGTDFTLTISSVQAEDLAFYYCKQSYNLPTFGGGTKLEIK |  | binds | 
8 | 10E4 Fab (Fab, V domains shown) VH: QQVKESGGRLVTPGTPLTLTCTASGFSLSTYWMSWVRQAPGKGLEYIGVIGGSGSTYYASWAKGRFTISKTSTTVDLKITSPTTEDTATYFCARDSGAGVRFRFWGPGTLVTVSS VL: DLVMTQTPASVEAGVGGTVTINCQASENIGSRLAWYQQKPGQPPKLLIYRASTLESGVPSRFKGSGSGTEFTLTISDLECADAATYYCQCTYGVSITINYGNDFGGGTEVVVK |  | binds | 
